Experimental data as given in article PMC3839904, “The α-Proteobacteria Wolbachia pipientis Protein Disulfide Machinery Has a Regulatory Mechanism Absent in γ-Proteobacteria” (PLoS ONE, 2013).
Values belong to the molecule of their own block, whether it stands above or below them.

How the values were obtained:
[1] = biological target: Wolbachia pipientis wMel α-DsbB (integral membrane protein) (Wolbachia pipientis wMel)
[2] = biological target: α-DsbB [SSCC] (the two cysteines of the first periplasmic loop replaced with serines) (Wolbachia pipientis wMel)
[3] = biological target: Wolbachia pipientis wMel α-DsbB (integral membrane protein) (Wolbachia pipientis wMel); remark: listed apart in the source
α-DsbB = biological target: T1, α-DsbB (Wolbachia pipientis, UniProt Q73G63); test: UQ1 reduction, absorbance at […] nm; AMS gel shift; format: biochemical; settings: reduced α-DsbA1 […] as electron donor, pH […] beta-DDM, […]°C
T1 construct: gene WD_1099; full-length integral membrane protein, pET21a (NdeI/XhoI) in E. coli BL21(DE3)pLysS, beta-DDM solubilised, TALON and size exclusion purified
T1 sequence (Q73G63 1-173): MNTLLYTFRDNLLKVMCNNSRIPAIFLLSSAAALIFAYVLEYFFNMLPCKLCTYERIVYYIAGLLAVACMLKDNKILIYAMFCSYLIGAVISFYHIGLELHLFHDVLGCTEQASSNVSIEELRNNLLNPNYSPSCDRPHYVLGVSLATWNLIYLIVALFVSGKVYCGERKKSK

[4] = biological target: Wolbachia pipientis wMel α-DsbB (integral membrane protein) (Wolbachia pipientis wMel); remark: listed apart in the source
[5] = biological target: Wolbachia pipientis wMel α-DsbB (integral membrane protein) (Wolbachia pipientis wMel); remark: listed apart in the source

initial rate of UQ1 reduction (absorbance at 275 nm) with α-DsbB (50 nM), UQ1 (30 µM) and reduced α-DsbA1 (30 µM), 30°C [1]: 0.236 min⁻¹
reverse reaction: gel-shift of the oxidation of reduced α-DsbB [SSCC] by oxidized α-DsbA1, within 15 min (% of α-DsbB [SSCC] oxidized) [2]: 50
initial rate of oxidation of the peptide substrate (time-resolved fluorescence) by α-DsbA1 with α-DsbB membranes (endogenous UQ), pH 5.5 [3]: 0.00477 min^-1
Molecule: Wolbachia pipientis wMel α-DsbA1 (enzyme)

Molecule: COC1=C(OC)C(=O)C(CC=C(C)C)=C(C)C1=O [UQ1, ubiquinone-1]
UQ1 reduction, absorbance at 275 nm; AMS gel shift (α-DsbB): UQ1 reduction was coupled with α-DsbB-mediated oxidation of α-DsbA1

initial rate of UQ1 reduction (absorbance at 275 nm) with α-DsbB, UQ1 and reduced α-DsbA1CA, 30°C [1]: 0.463 min⁻¹
gel-shift (AMS labelling) of the redox state of reduced α-DsbA1CA with α-DsbB and UQ1; oxidised variant against oxidised wt at 30 sec, 2 min, 5 min (3, 2 and 1.3 fold) [4]: 3 fold
initial rate of oxidation of the peptide substrate (time-resolved fluorescence) by α-DsbA1CA with wt α-DsbB membranes [5]: 0.00621 min⁻¹
Molecule: α-DsbA1CA (α-DsbA1 variant with the cysteines of the non-catalytic disulfide replaced with alanine) (enzyme)
